From article PMC7442826 (2020)

B1: EHBP1 CH (calponin homology) domain [human] / EHBP1 bMERB domain (bMERB_(1060-1212), full-length bMERB domain) [human] (parent complex)
chain 1: GRKPNASQSLLVWCKEVTKNYRGVKITNFTTSWRNGLSFCAILHHFRPDLIDYKSLNPQDIKENNKKAYDGFASIGISRLLEPSDMVLLAIPDKLTVMTYLYQIRAHFSGQ
chain 2: not shown

Variants of: B1
Assay: ITC

Question: With chain 1 Y102A as the variant, how does the Kd read?
Answer: 5.65 µM

Variants of: B1
Assay: ITC
Remark: another data set of the same source

Question: For chain 1 Q103A, which Kd is on record?
Answer: 3.85 µM

Variants of: B1
Assay: ITC
Remark: another data set of the same source

Question: With chain 1 M98A as the variant, how does the Kd read?
Answer: 7.6 µM

Variants of: B1
Assay: ITC
Remark: another data set of the same source

Question: chain 1 D93A was tested. Which Kd did it give?
Answer: 43.5 µM
